Tests used:
[1] = target: zcytor11 and CRF2-4 receptors co-expressed on transfected BaF3 or BHK cells (human) (UniProt Q08334); experiment: cell-based or functional assay
IL-TIF protein (human) = IL-TIF protein (human) (UniProt Q9GZX6); experiment: cell-based or functional assay
Sequence of IL-TIF protein (human) (Q9GZX6 34-179 limits assumed, form in doubt): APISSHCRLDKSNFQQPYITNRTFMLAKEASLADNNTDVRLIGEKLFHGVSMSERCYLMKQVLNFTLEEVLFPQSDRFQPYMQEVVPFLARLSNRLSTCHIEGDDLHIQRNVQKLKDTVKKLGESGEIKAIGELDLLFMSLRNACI

Sequence of zcytor11 and CRF2-4 receptors co-expressed on transfected BaF3 or BHK cells (human) (chain, as listed by the source limits assumed, form in doubt, chain 1 of 2): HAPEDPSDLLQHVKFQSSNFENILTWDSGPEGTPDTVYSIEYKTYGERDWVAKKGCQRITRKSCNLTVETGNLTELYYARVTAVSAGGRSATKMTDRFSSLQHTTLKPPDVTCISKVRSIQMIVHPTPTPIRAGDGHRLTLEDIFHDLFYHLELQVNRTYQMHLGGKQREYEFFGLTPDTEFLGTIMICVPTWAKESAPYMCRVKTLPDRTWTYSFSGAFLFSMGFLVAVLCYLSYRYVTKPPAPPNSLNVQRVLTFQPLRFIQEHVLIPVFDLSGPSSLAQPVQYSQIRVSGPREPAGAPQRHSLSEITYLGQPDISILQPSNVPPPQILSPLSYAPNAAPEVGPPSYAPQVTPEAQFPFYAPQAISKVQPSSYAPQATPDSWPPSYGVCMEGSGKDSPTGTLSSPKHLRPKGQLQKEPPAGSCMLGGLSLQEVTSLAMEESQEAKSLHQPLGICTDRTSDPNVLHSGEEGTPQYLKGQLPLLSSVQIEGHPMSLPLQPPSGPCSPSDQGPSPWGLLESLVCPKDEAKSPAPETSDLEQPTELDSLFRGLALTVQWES
Sequence of zcytor11 and CRF2-4 receptors co-expressed on transfected BaF3 or BHK cells (human) (Q08334 20-325 limits assumed, form in doubt, chain 2 of 2): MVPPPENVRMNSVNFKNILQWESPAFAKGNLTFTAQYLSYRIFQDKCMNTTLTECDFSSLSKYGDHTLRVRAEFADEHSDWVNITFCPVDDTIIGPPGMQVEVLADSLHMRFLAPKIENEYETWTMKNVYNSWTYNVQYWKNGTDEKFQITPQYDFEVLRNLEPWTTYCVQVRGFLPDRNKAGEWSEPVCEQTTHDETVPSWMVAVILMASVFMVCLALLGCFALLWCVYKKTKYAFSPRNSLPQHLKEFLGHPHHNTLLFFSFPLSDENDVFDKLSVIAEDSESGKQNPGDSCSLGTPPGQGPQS

Substance	proliferation of BaF3/CRF2-4/zcytor11 cells (Alamar Blue), IL-TIF at 100 pg/ml (fold over background) [1]	inhibition of IL-TIF-induced proliferation of BaF3/CRF2-4/zcytor11 cells (Alamar Blue): concentration at which inhibition was barely detectable (IL-TIF protein (human))	inhibition of IL-TIF-induced proliferation of BaF3/CRF2-4/zcytor11 cells (Alamar Blue): concentrations giving complete inhibition (IL-TIF protein (human))	inhibition of IL-TIF-induced proliferation of BaF3/CRF2-4/zcytor11 cells (Alamar Blue): concentrations giving partial inhibition (IL-TIF protein (human))
IL-TIF protein (from UniProt Q9GZX6 34-179) (ligand)	30			
CRF2-4/zcytor11-Fc soluble receptor heterodimer (Fc fusion)		1.6 ng/mL	25 to 200 ng/mL	3.1 to 12.5 ng/mL
